Results reported in US8163697B2, “Selective R-cadherin antagonists and methods” (The Scripps Research Institute, priority 2003, dated 2012).
Where a SMILES comes first, the peptide text is derived from it. Bridges are numbered along the chain shown (N, C = ends). Where no end group is shown, it is not given here.

What was measured:
N-cadherin = target: T1, N-cadherin (Mus musculus, UniProt P15116); test: Aggregation assay, N-cadherin transfected L-cells; type: cell-based; conditions: N-cadherin expressing L-cells; for IC50: 2 hours incubation, 5 mM CaCl2, read-out: IC50, inhibition of N-cadherin mediated aggregation
T1 construct: expressed in transfected cells
T1 sequence (P15116 160-906): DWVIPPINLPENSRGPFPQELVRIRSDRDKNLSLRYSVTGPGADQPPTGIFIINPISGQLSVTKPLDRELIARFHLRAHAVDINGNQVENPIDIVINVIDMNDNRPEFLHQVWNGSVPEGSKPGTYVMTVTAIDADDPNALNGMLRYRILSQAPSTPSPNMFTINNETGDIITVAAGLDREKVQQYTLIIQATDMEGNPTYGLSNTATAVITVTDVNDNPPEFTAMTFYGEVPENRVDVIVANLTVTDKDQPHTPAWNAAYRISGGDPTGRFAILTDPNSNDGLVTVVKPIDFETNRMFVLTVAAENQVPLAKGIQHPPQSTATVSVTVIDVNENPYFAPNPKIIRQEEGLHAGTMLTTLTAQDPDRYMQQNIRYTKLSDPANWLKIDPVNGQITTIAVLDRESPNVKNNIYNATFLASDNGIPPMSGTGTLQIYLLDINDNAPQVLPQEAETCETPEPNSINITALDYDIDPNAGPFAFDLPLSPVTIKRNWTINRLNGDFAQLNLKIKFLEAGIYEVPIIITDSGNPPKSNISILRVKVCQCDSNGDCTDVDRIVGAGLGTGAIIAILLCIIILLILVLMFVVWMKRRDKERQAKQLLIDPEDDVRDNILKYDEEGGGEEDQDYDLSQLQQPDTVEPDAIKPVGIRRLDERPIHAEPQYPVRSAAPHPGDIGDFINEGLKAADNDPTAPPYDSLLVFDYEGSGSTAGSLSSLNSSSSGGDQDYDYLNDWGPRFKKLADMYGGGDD
From the text: (§1) Mouse R-cadherin and N-cadherin plasmids were generous gifts from Dr. Masatoshi Takeichi (Kyoto University, Japan). The plasmids were sub-cloned into pDsRed2 N1 vectors (Clontech) to encode for fusion proteins with Red Fluorescent Protein (RFP) attached to the C-terminal end of the cadherin molecules. L-cells (mouse fibroblast L929 cells, ATCC #CRL-2148) were stably transfected with either R or N-cadherin pDsRed2 N1 using the Calcium Phosphate Transfection System (Life Technologies) according to the manufacturer's protocol. After screening by growth in media supplemented with Geneticin (700 μg/mL G418 Geneticin, Gibco BRL), positive clones were selected. Cells were examined for expression of RFP, and were tested for cadherin expression by immunoblotting and immunofluorescence staining. FIG. 6 illustrates the aggregation of L-cells expressing R and N-cadherins.
(§2) L-Cells were grown to near confluency followed by trypsinization with 0.01% trypsin+5 mM CaCl2 and no EDTA (TC) or 0.01% trypsin with 0.1 mM EDTA and no calcium (TE). The cells were collected and washed, followed by resuspension in Hanks buffer solution (HBSS)+1% BSA with (TC) or without (TE) 5 mM CaCl2. Cells were incubated at 37° C. in 0.5 mL solution at 2×10^5 cells per well of a 24 well plate with rocking at about 60-70 rpm with varying peptide concentrations. All assays were performed in triplicate. The extent of cellular aggregation was represented by the ratio of the total particle number after 2 hours of incubation (N2hr) to the initial particle number (N0). Particles were counted on a hemocytometer using the sum of 8 separate 20 μL counts/well, before (N0) and after (Nt) incubation. The results are illustrated in FIG. 8.
Mouse fibroblast cells (lineage L929), commonly referred to as L-cells, were chosen because they are known to contain no endogenous cadherin expression. R-cadherin stable transfectants were created and used to test the effects of the designed peptides on R-cadherin mediated aggregation. N-cadherin stable transfectants were also created and used to evaluate the peptides for cadherin selectivity, based on their effects on N-cadherin mediated aggregation. Immunoblot analysis detected high levels of R-cadherin and no N-cadherin expression in R-cadherin clone 8 (R-cad8), while high levels of N-cadherin expression and no R-cadherin expression was found in N-cadherin clone 3 (N-cad3), as shown in FIG. 7. Immunofluorescence confirmed the expression of the appropriate cadherin in these chosen clones. When tested in the aggregation assay, the morphology of the transfected cell lines was altered as a result of cadherin transfection. […]

R-cadherin = target: T2, R-cadherin (Mus musculus, UniProt P39038); test: Aggregation assay, R-cadherin transfected L-cells; type: cell-based; conditions: R-cadherin expressing L-cells
T2 construct: expressed in transfected cells
T2 sequence (P39038 167-913): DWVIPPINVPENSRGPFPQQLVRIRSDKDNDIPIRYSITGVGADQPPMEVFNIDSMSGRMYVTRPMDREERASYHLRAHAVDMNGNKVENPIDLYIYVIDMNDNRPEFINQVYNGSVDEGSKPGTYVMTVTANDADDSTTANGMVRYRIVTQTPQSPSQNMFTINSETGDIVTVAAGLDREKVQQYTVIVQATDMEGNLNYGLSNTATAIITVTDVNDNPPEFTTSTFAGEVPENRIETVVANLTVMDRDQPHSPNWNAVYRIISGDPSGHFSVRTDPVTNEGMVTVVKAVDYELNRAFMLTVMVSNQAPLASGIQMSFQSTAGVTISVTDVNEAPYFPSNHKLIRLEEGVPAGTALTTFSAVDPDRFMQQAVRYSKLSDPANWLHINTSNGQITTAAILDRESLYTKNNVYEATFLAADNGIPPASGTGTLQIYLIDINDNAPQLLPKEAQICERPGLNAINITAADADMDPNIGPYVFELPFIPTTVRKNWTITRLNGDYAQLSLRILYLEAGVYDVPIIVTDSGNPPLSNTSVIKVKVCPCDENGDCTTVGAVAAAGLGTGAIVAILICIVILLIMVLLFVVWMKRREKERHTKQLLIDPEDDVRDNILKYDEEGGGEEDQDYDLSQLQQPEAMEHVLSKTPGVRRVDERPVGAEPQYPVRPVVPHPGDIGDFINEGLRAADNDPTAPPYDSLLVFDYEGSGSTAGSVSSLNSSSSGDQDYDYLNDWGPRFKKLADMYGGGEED
From the text: as §1
as §2, with “The results are illustrated in FIG. 8.” left out
Mouse fibroblast cells (lineage L929), commonly referred to as L-cells, were chosen because they are known to contain no endogenous cadherin expression. […] Immunoblot analysis detected high levels of R-cadherin and no N-cadherin expression in R-cadherin clone 8 (R-cad8), while high levels of N-cadherin expression and no R-cadherin expression was found in N-cadherin clone 3 (N-cad3), as shown in FIG. 7. […]

IC50 (N-cadherin) [µM] | IC50 (R-cadherin; 2 hours incubation, 5 mM CaCl2, read-out: IC50, inhibition of R-cadherin mediated aggregation) [µM] | effect on N-cadherin mediated aggregation (N-cadherin) | effect on R-cadherin mediated aggregation (R-cadherin) | Molecule
150 to 200 | 150 to 200 |  |  | CC(=O)N[C@H]1CSSC[C@@H](C(N)=O)NC(=O)[C@H](C(C)C)NC(=O)[C@H](C)NC(=O)[C@H](Cc2c[nH]cn2)NC1=O [cyclic HAV, CHAVC]
< 300 |  |  |  | CC[C@H](C)[C@@H]1NC(=O)[C@@H](NC(C)=O)CSSC[C@@H](C(N)=O)NC(=O)[C@@H]2CCCN2C(=O)[C@H](CC(N)=O)NC1=O [cyclic INP, cyclic CINPC] (Ac-CINPC-NH2; disulfide 1-5)
 |  | little effect | little effect | cyclic CRADC (disulfide 1-5; also: peptides said to be amide-blocked at N-terminus and acetylated at C-terminus (as worded)) [cyclic RAD, control cyclic peptide CRADC]
 |  | little effect | little effect | cyclic CSDIC (disulfide 1-5; also: peptides said to be amide-blocked at N-terminus and acetylated at C-terminus (as worded)) [cyclic SDI, control cyclic peptide CSDIC]
